IntAct's records for PubMed 19151722

B1: Protein transport protein DSL1 (Saccharomyces cerevisiae), P53847 (parent)
chain: MESLFPNKGEIIRELLKDPLILKNDSKRSNGSELELDSSDLLQREAILANELNILDNLKTFLNLIKEVKTNLNILELENCYYSLQSLRKKMRNNAAYLKQSFNFQQSISTYVDTLHLELVSTLYKILTNGFWKITENSIQFTPTVEWGKDKVHIEYDTFMDFVAQQYFPKGSLDNQAWFILDMTSADSQEQVRAKLNTIMKEYMNLSRIVSMIKNSIFISGKEISYENEKNILVFSKSSSHGQHCVSTVLTSFEAVCDFMLDGLAFRDRKTLSYELGPLFNTEFTKFVKNNASIILESLDSPLKNLVSVINNKLTRLVAKSEVTNWTHSGKEIQDLLMNKQLYYNLLLDKVLESHISEIRSIFEDPKKSWQNLEVVELTTSNTNTMSEKIGKNDSDVQNEKELHNAVSKDDDWNWEVEDDDADAWGDEIDVNIDDEEEKTNQEKEKEPEEEENAWDEAWAIDENIDDASLENGKEHLKAHDVGSLDKDHIEVTQLPKLFLAISQNFKSSFADSHVDEQYFAYKYNLLQTSYMAMCTANFSHNWCQLYVDMRYLIERDEKLYRIKELTRNLLETKLNMKYRIVCQLIRHQLTEFRENERNPSWDATIEKLLPYILKEIVRPLQKIRGEEGSRYLLSFLNFLYNDCVTKEILKWQIISEVNSENLGELVSLLVNNTDIQLLAKEPSYKKMREKFATMGKFLPLHLKEIMEMFYNGDFYLFATDELIQWIELLFADTPLRRNAIDDIYEIRGTALDD
partner: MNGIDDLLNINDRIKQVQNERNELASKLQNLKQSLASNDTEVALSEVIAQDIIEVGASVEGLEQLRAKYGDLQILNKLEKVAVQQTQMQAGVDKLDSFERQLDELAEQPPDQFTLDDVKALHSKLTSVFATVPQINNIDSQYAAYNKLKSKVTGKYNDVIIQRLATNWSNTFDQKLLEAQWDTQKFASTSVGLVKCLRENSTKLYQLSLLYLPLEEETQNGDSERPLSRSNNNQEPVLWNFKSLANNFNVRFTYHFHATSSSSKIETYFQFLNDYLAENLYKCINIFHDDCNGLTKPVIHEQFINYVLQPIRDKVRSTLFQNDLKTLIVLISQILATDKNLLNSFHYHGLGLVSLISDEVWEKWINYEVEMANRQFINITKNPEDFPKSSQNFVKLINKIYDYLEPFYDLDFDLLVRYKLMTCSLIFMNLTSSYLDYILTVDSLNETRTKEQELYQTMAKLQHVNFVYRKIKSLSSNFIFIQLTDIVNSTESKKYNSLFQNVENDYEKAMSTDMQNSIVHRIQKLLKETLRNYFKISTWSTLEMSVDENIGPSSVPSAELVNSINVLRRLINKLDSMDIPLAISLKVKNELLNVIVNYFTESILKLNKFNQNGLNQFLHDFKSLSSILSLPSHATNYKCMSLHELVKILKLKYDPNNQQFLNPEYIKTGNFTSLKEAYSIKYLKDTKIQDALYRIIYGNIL
B2: Protein transport protein TIP20 (Saccharomyces cerevisiae), P33891 (parent)
chain: B1 partner
partner: B1 chain

Variants of: B1
Details: with tip20_yeast TIP20, P33891

effect of a mutation on the interaction	Variant
disrupting interaction	L58D
disrupting interaction	L48E
disrupting interaction	L55E

Variants of: B2
Details: with dsl1_yeast DSL1, P53847

effect of a mutation on the interaction	Variant
disrupting interaction	I10D;L28E
disrupting interaction	V17E
